± gives the uncertainty stated by the source.
B1: Zinc finger MYM-type protein 6, residues 427 to 504; numbered along this chain, O95789 (parent)
chain: KLKCQHCNHLFATKPELLFYKGKMFLFCGKNCSDEYKKKNKVVAMCDYCKLQKIIKETVRFSGVDKPFCSEVCKFLSA

Variants of: B1
Assay: abundance fitness (aPCA) (normalised: wild type 0, dead -1); higher = more abundant; growth selection in yeast, the domain comes from the species named
Conditions: Homo sapiens

Abundance fitness of substitutions, site by site:
C69: Q -0.404 ± 0.19
F61: I 0.679 ± 0.22, M 0.979 ± 0.1, T 0.348 ± 0.086, V 0.399 ± 0.079, K -0.027 ± 0.18, C 0.561 ± 0.085, H -0.151 ± 0.41, A 0.209 ± 0.073, E 0.298 ± 0.083, G -0.002 ± 0.079, R 0.117 ± 0.074, W 0.313 ± 0.091, D 0.56 ± 0.09, L 0.302 ± 0.09, P -0.308 ± 0.21, S 0.538 ± 0.11
P67: L -0.354 ± 0.14, G 0.07 ± 0.1, S 0.122 ± 0.12, K 0.486 ± 0.17, A -0.51 ± 0.22, W -0.088 ± 0.19, E -0.562 ± 0.23, V 0.27 ± 0.12, Q 0.296 ± 0.15, T -0.349 ± 0.28, R 0.042 ± 0.081, M 0.952 ± 0.092
K50: W -0.709 ± 0.13, R -0.172 ± 0.074, A -0.786 ± 0.16, V -0.96 ± 0.13, M -0.685 ± 0.27, Q 0.164 ± 0.17, C -0.805 ± 0.19, D -0.767 ± 0.37, S -0.422 ± 0.18, N -0.23 ± 0.17, G -0.228 ± 0.076, Y -0.48 ± 0.5, H -0.427 ± 0.43, E -0.363 ± 0.14, L -0.722 ± 0.19, T -0.687 ± 0.45
Y48: V -0.677 ± 0.12, M -0.65 ± 0.17, Q 0.059 ± 0.14, S -0.52 ± 0.13, G -0.174 ± 0.077, W -0.276 ± 0.11, H 0.537 ± 0.18, T -0.014 ± 0.34, N -0.184 ± 0.21, K -0.496 ± 0.22, R -0.043 ± 0.076, A -0.557 ± 0.11, P -0.801 ± 0.23, C 0.426 ± 0.21, E -0.861 ± 0.28, L -0.496 ± 0.11
K53: C 0.367 ± 0.12, R -0.308 ± 0.096, F 0.088 ± 0.36, V -0.127 ± 0.11, L -0.351 ± 0.099, P -0.154 ± 0.15, G -0.148 ± 0.067, M -0.189 ± 0.21, S -0.431 ± 0.15, E -0.353 ± 0.13, W -0.313 ± 0.09, A -0.126 ± 0.13
V64: W -0.765 ± 0.18, C -0.432 ± 0.15, S -0.107 ± 0.1, K -0.298 ± 0.24, I 0.365 ± 0.2, D 0.474 ± 0.25, Q -0.009 ± 0.11, M 0.606 ± 0.095, R 0.058 ± 0.086, Y 0.387 ± 0.21, A -0.302 ± 0.13, T 0.037 ± 0.18, E 0.09 ± 0.1, F -0.448 ± 0.4, G 0.046 ± 0.063
D47: I -0.306 ± 0.46, V -0.58 ± 0.1, L 0.177 ± 0.066, W 0.424 ± 0.072, R -0.394 ± 0.09, T -0.041 ± 0.15, E -0.125 ± 0.13, C -0.16 ± 0.16, H 0.26 ± 0.23, N -0.327 ± 0.19, S 0.311 ± 0.082, Q -0.106 ± 0.2
L51: T 0.551 ± 0.1, D 0.345 ± 0.32, A 0.187 ± 0.077, C 0.49 ± 0.13, R 0.509 ± 0.064, H 0.513 ± 0.17, S 0.567 ± 0.089, K 0.414 ± 0.11, M 0.805 ± 0.092, G 0.484 ± 0.058, I 0.022 ± 0.32, W -0.806 ± 0.13, V -0.119 ± 0.091, Q 0.529 ± 0.12
K56: L -0.382 ± 0.16, C -0.658 ± 0.43, G -0.192 ± 0.078, Q -0.044 ± 0.14, P 0.182 ± 0.12, S -0.411 ± 0.15, M 0.511 ± 0.12, V -0.071 ± 0.092, E -0.49 ± 0.15, R -0.423 ± 0.089, H -0.113 ± 0.15, W -0.16 ± 0.092
G63: C -0.709 ± 0.23, F -0.179 ± 0.47, L -0.315 ± 0.097, A -0.495 ± 0.16, W -0.486 ± 0.18, R -0.554 ± 0.13, V -0.713 ± 0.2, S -0.53 ± 0.23, D 0.098 ± 0.14, P -0.201 ± 0.31, Q -0.191 ± 0.18, T -0.226 ± 0.16, E -0.502 ± 0.17
S70: R -0.925 ± 0.14, D -0.498 ± 0.19, H -0.248 ± 0.18, C -0.425 ± 0.2, M -0.482 ± 0.21, P -0.563 ± 0.48, W -1.14 ± 0.27, L -0.162 ± 0.2, Y -0.673 ± 0.48, V -1.05 ± 0.16, A -0.651 ± 0.12, G -0.502 ± 0.098, Q -0.578 ± 0.17, K -0.635 ± 0.39
I55: E 0.197 ± 0.12, V 0.32 ± 0.07, Q -0.185 ± 0.18, T 0.161 ± 0.1, A 0.243 ± 0.082, G 0.16 ± 0.063, K -0.138 ± 0.46, R -0.055 ± 0.077, H 0.164 ± 0.15, L -0.774 ± 0.25, P 0.281 ± 0.2, M 0.211 ± 0.31, W -0.623 ± 0.17, S 0.305 ± 0.088
